Tests used:
[1] = biological target: T1, GalacTag6_GBSFerritinLMG14747; assay: SDS-PAGE and HPLC-SEC (FIG. 4)
T1 construct: Self-assembled ferritin nanoparticle displaying GalacTag6; also called GalacTag6 + Ferritin NP Subunit: LMG_14747
T1 chain: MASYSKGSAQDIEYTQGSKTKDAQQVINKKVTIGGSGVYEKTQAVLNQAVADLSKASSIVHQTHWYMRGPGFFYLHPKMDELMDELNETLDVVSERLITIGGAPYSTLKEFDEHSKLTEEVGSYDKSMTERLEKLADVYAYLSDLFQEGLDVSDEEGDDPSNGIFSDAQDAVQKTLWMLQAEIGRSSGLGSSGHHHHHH

GalacTag6_fHbp [2] = biological target: T2, GalacTag6_fHbp; assay: 1:1 molar mix, room temperature ~16 h, SDS-PAGE
T2 construct: Fusion of a GBS BP-2a tag peptide with N. meningitidis fHbp variant 1.1; also called GalacTag6_ffibp; wt GalacTag
T2 chain: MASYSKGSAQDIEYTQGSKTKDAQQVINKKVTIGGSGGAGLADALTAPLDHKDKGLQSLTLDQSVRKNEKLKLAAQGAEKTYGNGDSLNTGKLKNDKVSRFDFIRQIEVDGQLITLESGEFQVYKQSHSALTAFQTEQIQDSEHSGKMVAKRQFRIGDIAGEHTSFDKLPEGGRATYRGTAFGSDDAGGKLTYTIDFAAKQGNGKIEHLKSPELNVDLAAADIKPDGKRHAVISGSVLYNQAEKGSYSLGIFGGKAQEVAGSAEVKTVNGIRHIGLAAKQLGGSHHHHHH
Method: (§1) Each GalacDock/GalacTag pair was mixed in vitro at a 1:1 molar ratio at room temperature for approximately 16 hours, and samples were then subjected to SDS-PAGE electrophoresis.

GalacTag7_fHbp = biological target: T3, GalacTag7_fHbp (Neisseria meningitidis serogroup B / …, UniProt E6MV22 32-274); assay: mixed in vitro at room temperature ~16 h, SDS-PAGE
T3 construct: Fusion of a GBS BP-2a tag peptide with N. meningitidis fHbp variant 1.1
T3 sequence: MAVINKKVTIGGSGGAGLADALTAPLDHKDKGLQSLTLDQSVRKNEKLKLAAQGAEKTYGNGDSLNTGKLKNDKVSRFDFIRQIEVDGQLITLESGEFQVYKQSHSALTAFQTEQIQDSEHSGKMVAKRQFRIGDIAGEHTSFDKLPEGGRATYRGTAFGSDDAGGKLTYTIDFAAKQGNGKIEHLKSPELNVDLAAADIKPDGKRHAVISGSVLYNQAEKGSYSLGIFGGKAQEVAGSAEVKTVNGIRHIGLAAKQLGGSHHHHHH
Method: as §1

GalacTag6_fHbp (N636A) = biological target: T4, GalacTag6_fHbp (N636A); assay: mixed in vitro at room temperature ~16 h, SDS-PAGE (FIG. 3A)
T4 construct: also called variant GalacTag6_fHbp
T4 chain: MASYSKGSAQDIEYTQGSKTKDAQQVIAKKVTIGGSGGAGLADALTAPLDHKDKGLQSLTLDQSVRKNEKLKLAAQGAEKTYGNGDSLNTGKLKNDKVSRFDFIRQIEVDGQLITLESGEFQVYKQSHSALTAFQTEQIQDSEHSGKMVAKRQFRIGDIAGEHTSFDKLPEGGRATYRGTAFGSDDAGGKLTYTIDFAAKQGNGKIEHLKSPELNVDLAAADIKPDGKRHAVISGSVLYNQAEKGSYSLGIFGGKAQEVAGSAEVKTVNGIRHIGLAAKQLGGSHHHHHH
Method: (§2) Using these variant GalacDock6 and GalacTag6_fHbp polypeptides, pairs as shown in Table 3 were mixed in vitro at a 1:1 molar ratio at room temperature for approximately 16 hours, and samples were then subjected to SDS-PAGE electrophoresis.

[3] = biological target: T5, GalacTag6_GBSFerritinDK-PW-092+N-terminal helix; assay: 1:1 mix with the nanoparticle, room temperature ~16 h, SDS-PAGE and HPLC-SEC (FIG. 6)
T5 construct: Self-assembled ferritin nanoparticle displaying GalacTag6; also called GalacTag6_GBSFerritinDK-PW-092+ helix; GalacTag6 + GBS ferritin NP subunit from DK-092-PW w/N-terminal helix
T5 chain: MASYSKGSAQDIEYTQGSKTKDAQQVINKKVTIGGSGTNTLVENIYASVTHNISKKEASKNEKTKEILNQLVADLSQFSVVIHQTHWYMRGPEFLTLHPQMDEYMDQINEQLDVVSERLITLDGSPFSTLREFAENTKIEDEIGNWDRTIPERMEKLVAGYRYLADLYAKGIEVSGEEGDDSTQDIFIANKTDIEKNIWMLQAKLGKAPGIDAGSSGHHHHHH

[4] = biological target: T6, GalacTag6_GBSFerritinDK-PW-092; assay: 1:1 mix with the nanoparticle, room temperature, SDS-PAGE and HPLC-SEC (FIGS. 5A, 5B)
T6 construct: also called GalacTag6 + GBS ferritin NP subunit from DK-092-PW
T6 chain: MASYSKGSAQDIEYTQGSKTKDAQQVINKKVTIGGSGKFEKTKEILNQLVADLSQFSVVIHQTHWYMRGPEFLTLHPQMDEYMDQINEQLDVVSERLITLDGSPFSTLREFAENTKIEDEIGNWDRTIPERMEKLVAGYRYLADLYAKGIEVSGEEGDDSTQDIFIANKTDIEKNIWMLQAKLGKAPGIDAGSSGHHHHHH

GalacTag6_fHbp [5] = biological target: T2, GalacTag6_fHbp; assay: mixed in vitro at room temperature ~16 h, SDS-PAGE (FIG. 3A)
Method: as §2

GalacTag5_fHbp = biological target: T7, GalacTag5_fHbp (Neisseria meningitidis serogroup B / …, UniProt E6MV22 32-274); assay: mixed in vitro at room temperature ~16 h, SDS-PAGE
T7 construct: Fusion of a GBS BP1 tag peptide with N. meningitidis fHbp variant 1.1
T7 sequence: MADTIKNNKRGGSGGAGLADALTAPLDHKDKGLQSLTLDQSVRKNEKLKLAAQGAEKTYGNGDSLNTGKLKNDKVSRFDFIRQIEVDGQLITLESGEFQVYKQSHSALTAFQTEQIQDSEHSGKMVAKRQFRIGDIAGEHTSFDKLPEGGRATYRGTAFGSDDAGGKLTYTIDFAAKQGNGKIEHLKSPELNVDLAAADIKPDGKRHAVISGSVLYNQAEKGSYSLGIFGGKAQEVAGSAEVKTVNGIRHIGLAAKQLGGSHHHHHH
Method: as §1

B1: GalacDock6 with MHHHHHHS leader (designed binder)
chain: MHHHHHHSNTETKPQVDKNFADKELDYANNKKDKGTVSASVGDVKKYHVGTKILKGSDYKKLIWTDSMTKGLTFNNDIAVTLDGATLDATNYKLVADDQGFRLVLTDKGLEAVAKAAKTKDVEIKITYSATLNGSAVVEVLETNDVKLDYGNNPTIENEPKEGIPVDKKITVNKTWAVDGNEVNKADETVDAVFTLQVKDGDKWVNVDSAKATAATSFKHTFENLDNAKTYRVIERVSGYAPEYVSFVNGVVTIKNNKDSNEPTPINPSEPKVVTYGRKFVKTNKDGKERLAGATFLVKKDGKYLARKSGVATDAEKAAVDSTKSALDAAVKAYNDLTKEKQEGQDGKSALATVSEKQKAYNDAFVKANYSYEWVEDKNAKNVVKLISNDKGQFEITGLTEGQYSLEETQAPTGYAKLSGDVSFNVN
notes: It forms a covalent isopeptide bond with GalacTag6; also called GalacDoc6; GlacDock6
binding result [1]: binds | binding result (GalacTag6_fHbp [2]): binds | binding result (GalacTag7_fHbp): no binding (tested: 1:1 molar ratio) | binding result (GalacTag6_fHbp (N636A)): no binding (tested: 1:1 molar ratio) | binding result [3]: binds | binding result [4]: binds

B2: GalacDock6 variant E589Q (designed binder)
chain: MHHHHHHSNTETKPQVDKNFADKELDYANNKKDKGTVSASVGDVKKYHVGTKILKGSDYKKLIWTDSMTKGLTFNNDIAVTLDGATLDATNYKLVADDQGFRLVLTDKGLEAVAKAAKTKDVEIKITYSATLNGSAVVEVLETNDVKLDYGNNPTIENEPKEGIPVDKKITVNKTWAVDGNEVNKADETVDAVFTLQVKDGDKWVNVDSAKATAATSFKHTFENLDNAKTYRVIERVSGYAPEYVSFVNGVVTIKNNKDSNEPTPINPSEPKVVTYGRKFVKTNKDGKERLAGATFLVKKDGKYLARKSGVATDAEKAAVDSTKSALDAAVKAYNDLTKEKQEGQDGKSALATVSEKQKAYNDAFVKANYSYEWVEDKNAKNVVKLISNDKGQFEITGLTEGQYSLEQTQAPTGYAKLSGDVSFNVN
binding result (GalacTag6_fHbp [5]): no binding (tested: 1:1 molar ratio)

B3: GalacDock6 variant K463A (designed binder)
chain: MHHHHHHSNTETKPQVDKNFADKELDYANNKKDKGTVSASVGDVKKYHVGTKILKGSDYKKLIWTDSMTKGLTFNNDIAVTLDGATLDATNYKLVADDQGFRLVLTDKGLEAVAKAAKTKDVEIKITYSATLNGSAVVEVLETNDVKLDYGNNPTIENEPKEGIPVDKKITVNKTWAVDGNEVNKADETVDAVFTLQVKDGDKWVNVDSAKATAATSFKHTFENLDNAKTYRVIERVSGYAPEYVSFVNGVVTIKNNKDSNEPTPINPSEPKVVTYGRKFVATNKDGKERLAGATFLVKKDGKYLARKSGVATDAEKAAVDSTKSALDAAVKAYNDLTKEKQEGQDGKSALATVSEKQKAYNDAFVKANYSYEWVEDKNAKNVVKLISNDKGQFEITGLTEGQYSLEETQAPTGYAKLSGDVSFNVN
binding result (GalacTag6_fHbp [5]): no binding (tested: 1:1 molar ratio)

B4: GalacDock6 variant E589A (designed binder)
chain: MHHHHHHSNTETKPQVDKNFADKELDYANNKKDKGTVSASVGDVKKYHVGTKILKGSDYKKLIWTDSMTKGLTFNNDIAVTLDGATLDATNYKLVADDQGFRLVLTDKGLEAVAKAAKTKDVEIKITYSATLNGSAVVEVLETNDVKLDYGNNPTIENEPKEGIPVDKKITVNKTWAVDGNEVNKADETVDAVFTLQVKDGDKWVNVDSAKATAATSFKHTFENLDNAKTYRVIERVSGYAPEYVSFVNGVVTIKNNKDSNEPTPINPSEPKVVTYGRKFVKTNKDGKERLAGATFLVKKDGKYLARKSGVATDAEKAAVDSTKSALDAAVKAYNDLTKEKQEGQDGKSALATVSEKQKAYNDAFVKANYSYEWVEDKNAKNVVKLISNDKGQFEITGLTEGQYSLEATQAPTGYAKLSGDVSFNVN
binding result (GalacTag6_fHbp [5]): no binding (tested: 1:1 molar ratio)

B5: GalacDock5 with MHHHHHHS leader (designed binder)
chain: MHHHHHHSNVVTDEPKTDKDVKKLGQDDAGYTIGEEFKWFLKSTIPANLGDYEKFEITDKFADGLTYKSVGKIKIGSKTLNRDEHYTIDEPTVDNQNTLKITFKPEKFKEIAELLKGMTLVKNQDALDKATANTDDAAFLEIPVASTINEKAVLGKAIENTFELQYDHTPDKADNPKPSNPPRKPEVHTGGKRFVKKDSTETQTLGGAEFDLLASDGTAVKWTDALIKANTNKNYIAGEAVTGQPIKLKSHTDGTFEIKGLAYAVDANAEGTAVTYKLKETKAPEGYVIPDKEIEFTVSQTSYNTKPTDITVDSAD
notes: Expressed in E. coli and purified on a HisTrap HP column
binding result (GalacTag5_fHbp): no binding (tested: 1:1 molar ratio)

B6: GalacDock7 with MHHHHHHS leader (designed binder)
chain: MHHHHHHSNTETKPQVDKNFADKELDYANNKKDKGTVSASVGDVKKYHVGTKILKGSDYKKLIWTDSMTKGLTFNNDIAVTLDGATLDATNYKLVADDQGFRLVLTDKGLEAVAKAAKTKDVEIKITYSATLNGSAVVEVLETNDVKLDYGNNPTIENEPKEGIPVDKKITVNKTWAVDGNEVNKADETVDAVFTLQVKDGDKWVNVDSAKATAATSFKHTFENLDNAKTYRVIERVSGYAPEYVSFVNGVVTIKNNKDSNEPTPINPSEPKVVTYGRKFVKTNKDGKERLAGATFLVKKDGKYLARKSGVATDAEKAAVDSTKSALDAAVKAYNDLTKEKQEGQDGKSALATVSEKQKAYNDAFVKANYSYEWVEDKNAKNVVKLISNDKGQFEITGLTEGQYSLEETQAPTGYAKLSGDVSFNVNATSYSKGSAQDIEYTQGSKTKDA
binding result (GalacTag7_fHbp): no binding (tested: 1:1 molar ratio)

From patent publication US20230250142A1 (GlaxoSmithKline, published 2023)
